Experiment [1] concerns the target VEGF (soluble stimulus added to cell cultures). Briefly: cell-based or functional assay.
The target in experiment [2] is bFGF (soluble stimulus added to cell cultures). Briefly: cell-based or functional assay.
Experiment [3] concerns the target VEGF (soluble stimulus added to cell cultures). Briefly: cell-based or functional assay. This is another data set of the same source.
For experiment [4], the target named is Human VEGF (dendritic cell assay) (human, UniProt P15692-4 27-191, limits assumed). Nature of the experiment: cell-based or functional assay.
Experiment [5] has as its target T1, GST-hVEGF121 (human, UniProt P15692-9 27-147).
T1 construct: plate coating of the VEGF ELISAs; also called human VEGF; not shown: glutathione S-transferase (GST) fusion partner
T1 sequence (looked up): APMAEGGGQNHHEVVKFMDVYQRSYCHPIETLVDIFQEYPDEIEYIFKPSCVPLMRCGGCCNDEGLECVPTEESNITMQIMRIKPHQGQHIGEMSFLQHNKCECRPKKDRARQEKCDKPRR
Nature of the experiment: ELISA, coated GST-hVEGF. Here is the method:
(§1) The 96-well plates were coated with 100 μL/well of a solution of GST-hVEGF121, GST-mVEGF120, or GST at a concentration of 20 μg/mL, or with a solution of VEGFKDR- at a concentration of 10 μg/mL, or hFGF-2 or mFGF-2 at a concentration of 5 μg/mL in 1×PBS for 16 hours at 4° C. After the plates were blocked with PBS-5% skim milk for one hour, 1:2 serial dilutions of the purified VHHs were added, starting at 2 μg/mL in PBS-0.5% skim milk. The plates were incubated for 1 hour at 37° C. and after several washes, the monoclonal antibody 9E10, specific for c-myc, was added. After one hour of incubation at 25° C. the plates were washed thoroughly. The binding of the fragment to the antigen in the solid phase was detected by the peroxidase activity using 100 μL/well of TMB. The reaction was stopped with 50 μL/well of stop solution, and absorbance values at 450 nm were determined in a microtiter plate reader.
For orientation: An ELISA detects its analyte on a solid surface through an enzyme-linked reagent.

Experiment [6] deals with T2, Recombinant human bFGF (human, UniProt P09038 143-288, limits assumed).
T2 construct: Bought (Sigma); also called hFGF-2; human basic fibroblast growth factor
Nature of the experiment: ELISA, coated human bFGF. The protocol: as §1
SEQ ID NO: 18 and SEQ ID NO: 19, and the bivalent Nb-VV6 and Nb-FF2, with sequences identified as SEQ ID NO: 20 and SEQ ID NO: 21, were expressed and purified as described in the Example 1. In all cases, the purity and identity of the proteins were verified by SDS-PAGE 12% and anti-polyhistidine Western Blot. […] The experimental mass of the polypeptides and the arrangement of the disulfide bridges were checked by ESI/MS-MS. The experimental and theoretical mass, for each polypeptide coincided, with errors less than 0.0015% in all cases, and the formation of intramolecular bridges between C22-C101 and C168-C247 was verified. […] The biological activity of the polypeptides was evaluated by ELISA for recognition of the VEGF and bFGF antigens, and by their ability to displace VEGF and bFGF binding to their respective VEGFR2 and FGFR1 receptors. […] Similarly, it was shown that the ability to displace the binding of antigens by their receptors was not affected.

The target of experiment [7] is T2, Recombinant human bFGF. Briefly: competition ELISA, coated bFGF, competitor Fc-FGFR1. The protocol: (§2) The ability of VHHs to hinder receptors for binding to their ligand was assessed by ELISA, for which 96-well plates (NUNC, USA) were coated with GST-hVEGF or bFGF and blocked as described in the previous section. Serial 1:2 dilutions of the purified VHHs, from […] to […], were added and the plates and incubated for 1 h at 37° C. In this step, some wells were left where only PBS-milk was added. […] After 45 min incubation at 37° C., plates were washed with PBS-0.05% Tween. To detect receptor binding, HRP-conjugated anti-human IgG antibody was added, diluted 1:5000 in PBS-0.5% milk. After incubation for 1 h at 37° C., the plates were washed with PBS-Tween, and TMB was added. The reaction was stopped after 10 min. Wells incubated with the receptors without the addition of the antibody fragments were taken as reference for maximum binding in the absence of competitor. In this assay, in the case of inhibition of the VEGF/VEGFR axis, the CIGB166a antibody fragment was used as a positive control, and an anti-FGF polyclonal antibody was used for the FGF/FGFR axis. The percentage of inhibition of receptor binding to its ligand was calculated as follows: […]

Experiment [8] addresses T1, GST-hVEGF121. Briefly: competition ELISA, coated GST-hVEGF, competitor Fc-VEGFR2. The protocol: as §2
The biological effect of VEGF is a consequence of its binding to two fundamental receptors (VEGFR1 and VEGFR2), so for a polypeptide that binds to VEGF to be effective in the therapeutic setting, it must block these interactions (Shibuya, Cell Structure and Function, 2001: 26: 25-35). The ability of Nb-V1 to compete with receptors 1 and 2 for binding to its ligand (VEGF) was assessed by solid phase ligand competition ELISA, as described above.

For experiment [9], the target named is T2, Recombinant human bFGF. Briefly: ELISA, coated human bFGF. The source holds these as a separate data set.
In experiment [10] the target is T2, Recombinant human bFGF. Briefly: competition ELISA, coated bFGF, competitor Fc-FGFR1. The source holds these as a separate data set.
In experiment [11] the target is T1, GST-hVEGF121. Nature of the experiment: ELISA, coated GST-hVEGF. This is another data set of the same source.
Experiment [12] has as its target T1, GST-hVEGF121. Briefly: competition ELISA, coated GST-hVEGF, competitor Fc-VEGFR2. The source holds these as a separate data set.

Like-named read-outs stand apart in the source and are kept apart here.

Chain of VEGF (soluble stimulus added to cell cultures) (P15692 whole entry): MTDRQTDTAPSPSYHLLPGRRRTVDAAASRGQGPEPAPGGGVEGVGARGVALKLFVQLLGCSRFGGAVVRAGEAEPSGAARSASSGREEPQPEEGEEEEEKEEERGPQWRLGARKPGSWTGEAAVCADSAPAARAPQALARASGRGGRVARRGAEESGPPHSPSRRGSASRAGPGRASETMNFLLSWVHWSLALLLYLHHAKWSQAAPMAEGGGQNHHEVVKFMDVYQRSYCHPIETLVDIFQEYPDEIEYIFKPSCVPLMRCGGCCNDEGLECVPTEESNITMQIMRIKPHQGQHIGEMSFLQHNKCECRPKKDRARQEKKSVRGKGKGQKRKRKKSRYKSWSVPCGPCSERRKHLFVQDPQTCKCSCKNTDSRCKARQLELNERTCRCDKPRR
T2 sequence (P09038 143-288 limits assumed): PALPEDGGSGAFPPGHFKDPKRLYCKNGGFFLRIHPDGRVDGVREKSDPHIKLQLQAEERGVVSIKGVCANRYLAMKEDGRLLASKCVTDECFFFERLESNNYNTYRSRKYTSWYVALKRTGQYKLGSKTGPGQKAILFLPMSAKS

B1: Nb-FV1 (bispecific antibody)
chain: QVQLVESGGGLVQPGGSLRLSCAASGTEDGRLLTLGGSWFRQAPGQGLEAVAAIGAGDRGGATYYADSVKGRFTISRDNSKNTLYLQMNSLRAEDTAVYYCTALYERQPQLAATKVARKWGQGTLVTVSSAHHSEDPSSKAPKAPAQVQLVESGGGLVQPGGSLRLSCAASGNSAEDRLYNSYTWFRQAPGQGLEAVAAISSHFSAGLTYYADSVKGRFTISRDNSKNTLYLQMNSLRAEDTAVYYCEITSHASHNDAWSTPRTVWGQGTLVTVSSAAAGSEQKLISEEDLNSHHHHHH
notes: Bispecific tandem VHH (bFGF and VEGF); with c-myc and histidine tag
For orientation: EC50 means the midpoint of the concentration-response curve. What is called IC50 is the concentration that gives 50% inhibition. Turning to B1, in experiment [1], the “IC50, proliferation of HDMEC cells +VEGF (5 ng/ml)” value is 129 nM. Further, in experiment [2], the “IC50, proliferation of HDMEC cells +bFGF (10 ng/ml)” value was determined as 122 nM. In addition, in experiment [3], the “PD1 expression (%) in CD8+ cells treated with VEGF, VHH 1 µg/mL” value amounted to 63%; the “PD1 expression (%) in CD8+ cells treated with VEGF, VHH 5 µg/mL” value came to 55%; the “PD1 expression (%) in CD8+ cells treated with VEGF, VHH 10 µg/mL” value was found to be 40%. For the same molecule, in experiment [4], the “CD86 (MFI) on dendritic cells +VEGF +LPS, VHH 1 µg/mL” value was found to be 2030 MFI; the “CD86 (MFI) on dendritic cells +VEGF +LPS, VHH 5 µg/mL” value stood at 3200 MFI; the “CD86 (MFI) on dendritic cells +VEGF +LPS, VHH 10 µg/mL” value was found to be 17500 MFI; the “MHCII (MFI) on dendritic cells +VEGF +LPS, VHH 1 µg/mL” value amounted to 4980 MFI. In addition, in [4], the “MHCII (MFI) on dendritic cells +VEGF +LPS, VHH 5 µg/mL” value is 6000 MFI and the “MHCII (MFI) on dendritic cells +VEGF +LPS, VHH 10 µg/mL” value is 17500 MFI. The molecule further showed an EC50 in [5] of 4.59 nM. In [6], the EC50 stood at 11.5 nM. The IC50 in [7] came out at 131 nM. Besides, the IC50 in experiment [8] was 28.3 nM.

B2: Nb-F3\cmycH6 (VHH)
VHH: QVQLVESGGGLVQPGGSLRLSCAASGTEDGRLLTLGGSWFRQAPGQGLEAVAAIGAGDRGGATYYADSVKGRFTISRDNSKNTLYLQMNSLRAEDTAVYYCTALYERQPQLAATKVARKWGQGTLVTVSS
notes: Nb-F3 without c-myc tracer peptide and histidine tag
In the case of B2, the EC50 in experiment [9] is 11.5 nM. Moreover, in experiment [10], the IC50 was 134 nM.

B3: Nb-VF3\cmycH6 (bispecific antibody)
chain: QVQLVESGGGLVQPGGSLRLSCAASGNSAEDRLYNSYTWFRQAPGQGLEAVAAISSHFSAGLTYYADSVKGRFTISRDNSKNTLYLQMNSLRAEDTAVYYCEITSHASHNDAWSTPRTVWGQGTLVTVSSAHHSEDPSSKAPKAPAQVQLVESGGGLVQPGGSLRLSCAASGTEDGRLLTLGGSWFRQAPGQGLEAVAAIGAGDRGGATYYADSVKGRFTISRDNSKNTLYLQMNSLRAEDTAVYYCTALYERQPQLAATKVARKWGQGTLVTVSS
notes: Nb-VF3 without c-myc tracer peptide and histidine tag
Consider B3, for which the EC50 in [11] was 4.84 nM; in experiment [9] it was 11.5 nM. For the same molecule, the figures for the IC50 in experiment [10] and in experiment [12] were 137 nM and 28.4 nM, respectively.

B4: Nb-VF3 (bispecific antibody)
chain: QVQLVESGGGLVQPGGSLRLSCAASGNSAEDRLYNSYTWFRQAPGQGLEAVAAISSHFSAGLTYYADSVKGRFTISRDNSKNTLYLQMNSLRAEDTAVYYCEITSHASHNDAWSTPRTVWGQGTLVTVSSAHHSEDPSSKAPKAPAQVQLVESGGGLVQPGGSLRLSCAASGTEDGRLLTLGGSWFRQAPGQGLEAVAAIGAGDRGGATYYADSVKGRFTISRDNSKNTLYLQMNSLRAEDTAVYYCTALYERQPQLAATKVARKWGQGTLVTVSSAAAGSEQKLISEEDLNSHHHHHH
notes: Bispecific tandem VHH (VEGF and bFGF); with c-myc and histidine tag
For the molecule B4, the “IC50, proliferation of HDMEC cells +VEGF (5 ng/ml)” value in experiment [1] came out at 132 nM. Besides, the “IC50, proliferation of HDMEC cells +bFGF (10 ng/ml)” value in experiment [2] is 120 nM. Moreover, the figures for the EC50 in experiment [5] and in experiment [6] were 4.49 nM and 11.3 nM, respectively. The figures for the IC50 in experiment [7] and in experiment [8] were 136 nM and 28.5 nM, respectively.

B5: Nb-FV1\cmycH6 (bispecific antibody)
chain: QVQLVESGGGLVQPGGSLRLSCAASGTEDGRLLTLGGSWFRQAPGQGLEAVAAIGAGDRGGATYYADSVKGRFTISRDNSKNTLYLQMNSLRAEDTAVYYCTALYERQPQLAATKVARKWGQGTLVTVSSAHHSEDPSSKAPKAPAQVQLVESGGGLVQPGGSLRLSCAASGNSAEDRLYNSYTWFRQAPGQGLEAVAAISSHFSAGLTYYADSVKGRFTISRDNSKNTLYLQMNSLRAEDTAVYYCEITSHASHNDAWSTPRTVWGQGTLVTVSS
notes: Nb-FV1 without c-myc tracer peptide and histidine tag
B5: the EC50 in experiment [11] amounted to 4.56 nM; in experiment [9] it was 11.8 nM. Also, the IC50 in experiment [10] came to 132 nM; in experiment [12] it was 28.6 nM.

B6: Nb-VV6\cmycH6 (VHH)
chain: QVQLVESGGGLVQPGGSLRLSCAASGNSAEDRLYNSYTWFRQAPGQGLEAVAAISSHFSAGLTYYADSVKGRFTISRDNSKNTLYLQMNSLRAEDTAVYYCEITSHASHNDAWSTPRTVWGQGTLVTVSSAHHSEDPSSKAPKAPAQVQLVESGGGLVQPGGSLRLSCAASGNSAQDRLYNSYTWFRQAPGQGLEAVAAISSHFSAGLTYYADSVKGRFTISRDNSKNTLYLQMNSLRAEDTAVYYCEITSHASHNDAWSTPRTVWGQGTLVTVSS
notes: Nb-VV6 without c-myc tracer peptide and histidine tag
Regarding B6, the response in experiment [11] was half-maximal at 1.78 nM (EC50). Further, in experiment [12], the IC50 came to 5.23 nM.

B7: Nb-FF2\cmycH6 (VHH)
chain: QVQLVESGGGLVQPGGSLRLSCAASGTEDGRLLTLGGSWFRQAPGQGLEAVAAIGAGDRGGATYYADSVKGRFTISRDNSKNTLYLQMNSLRAEDTAVYYCTALYERQPQLAATKVARKWGQGTLVTVSSAHHSEDPSSKAPKAPAQVQLVESGGGLVQPGGSLRLSCAASGTEDGRLLTLGGSWFRQAPGQGLEAVAAIGAGDRGGATYYADSVKGRFTISRDNSKNTLYLQMNSLRAEDTAVYYCTALYERQPQLAATKVARKWGQGTLVTVSS
notes: Nb-FF2 without c-myc tracer peptide and histidine tag
Take B7: the EC50 in experiment [9] amounted to 5.98 nM. Also, in experiment [10], the IC50 is 53.7 nM.

B8: Nb-V1\cmycH6 (VHH)
VHH: QVQLVESGGGLVQPGGSLRLSCAASGNSAEDRLYNSYTWFRQAPGQGLEAVAAISSHFSAGLTYYADSVKGRFTISRDNSKNTLYLQMNSLRAEDTAVYYCEITSHASHNDAWSTPRTVWGQGTLVTVSS
notes: Nb-V1 without c-myc tracer peptide and histidine tag
Regarding B8, the EC50 in experiment [11] came to 4.64 nM. The molecule further displayed a 50% inhibitory concentration (IC50) in experiment [12] of 28.6 nM.

For the origin of these results see US20250326826A1 (CENTRO DE INGENIER A GEN TICA Y BIOTECNOLOG A, published 2025).
